Source: patent KR20230038028A (dated 2023)

Assays:
Assay in all cases: western blot of E. coli lysate supernatant
[1] = target: T1, His-S2p2(서열 686~1207) (SARS-CoV-2, UniProt P0DTC2 686-1207)
T1 construct: range 686-1207

[2] = target: T2, His-S2p2-1(서열 686~1177 아미노산) (SARS-CoV-2, UniProt P0DTC2 686-1177)
T2 construct: range 686-1177

[3] = target: T3, S2p2-2(서열 686~1144) (SARS-CoV-2, UniProt P0DTC2 686-1144)
T3 construct: range 686-1144

Measured: binding result

B1: 항-스파이크2(Spike2, S2) 단일클론 항체 4A5 (antibody, V domains shown)
VH: QVKLEQSGPGILQPSQTLSLTCSFSGFSLSTSGMGVSWIRQSSGKGLEWLTHIYWDDDKRYNPSLKSRLTISKDTSRNQVFLKITSVDTADTATYYCARRRMITGLYYAMDYWGQGTSVTVSS
VL: DIVMTQSTLSLPVSFGDQVSISCRSSQSLANSYGITYLSWYLHKPGQSPQLLIYGISNRFSGVPDRFSGSGSGTDFTLKISTIKPEDLGMYYCLQGTHQPWTFGGGTKLEIKR
notes: also called 4A5 항체; 항-S2 항체 4A5
binds: all assays above
